In patent US20260115290A1:

Biological target: HLA-DR on K562-CD19-HLA-DR cells (alpha chain UniProtKB-P01903, beta chain UniProtKB-P04229) (human) (UniProt P01903)
Test: cell-based or functional assay

CD107a+ population, single against dual CAR-NK cells, K562-CD19-HLA-DR target cells: 2 to 3 fold | IFN-γ production (ELISA), dual against single CAR-NK cells with K562-CD19-HLA-DR cells: 70 % reduction
Substance: anti-HLA-DR iCAR (FLAG tag, scFv of antibody 1D09C3, PD-1 hinge, transmembrane and intracellular domains) (from UniProt Q15116 145-288) (receptor)
